Laboratory results as given in CN116143917A (DONGGUAN PENGZHI BIOTECHNOLOGY CO LTD, dated 2023).
Blank lines part the entries; values can stand above or below the molecule they belong to.

Target: T1, D-二聚体抗原(购自菲鹏)
T1 chain 1: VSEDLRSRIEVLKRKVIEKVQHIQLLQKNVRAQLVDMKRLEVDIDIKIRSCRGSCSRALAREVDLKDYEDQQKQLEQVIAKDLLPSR
T1 chain 2: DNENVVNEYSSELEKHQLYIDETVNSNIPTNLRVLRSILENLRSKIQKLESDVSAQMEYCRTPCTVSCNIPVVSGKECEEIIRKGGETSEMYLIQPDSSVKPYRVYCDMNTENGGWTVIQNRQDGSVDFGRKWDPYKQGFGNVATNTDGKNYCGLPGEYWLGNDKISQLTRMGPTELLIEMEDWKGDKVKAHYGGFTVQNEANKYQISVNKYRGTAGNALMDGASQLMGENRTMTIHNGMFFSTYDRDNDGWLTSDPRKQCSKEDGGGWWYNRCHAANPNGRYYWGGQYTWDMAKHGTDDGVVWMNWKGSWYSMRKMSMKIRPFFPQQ
T1 chain 3: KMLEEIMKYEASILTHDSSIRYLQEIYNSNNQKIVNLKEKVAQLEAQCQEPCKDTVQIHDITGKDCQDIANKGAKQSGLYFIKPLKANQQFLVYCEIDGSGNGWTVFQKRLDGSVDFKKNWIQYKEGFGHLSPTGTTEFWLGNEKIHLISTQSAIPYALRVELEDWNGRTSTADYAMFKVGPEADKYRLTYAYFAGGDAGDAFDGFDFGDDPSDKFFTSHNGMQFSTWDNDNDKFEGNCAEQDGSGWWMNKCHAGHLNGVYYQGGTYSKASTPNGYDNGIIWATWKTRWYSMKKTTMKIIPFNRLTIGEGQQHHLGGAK
Test: BLI, AMC sensor, antibody immobilised, D-dimer antigen in serial dilution

- Kd: 21.4 nM
- koff: 0.000132 s⁻¹
- kon: 6170 M⁻¹ s⁻¹
Molecule: 对照抗体 (antibody)

- Kd: 9.9 nM
- koff: 0.00545 s⁻¹
- kon: 550000 M⁻¹ s⁻¹
B1: 14D2RMb-1 (antibody, mouse IgG2a, kappa)
heavy: QVQLQQSGPELVRPGVSVKISCKGSGYRFTDYSIHWLKQSHAKSLEWIGVISTYSGNPDYNQKFKGKATMTVDQSSSTAYMELARLTSDDSAIYYCSRMNDYYGDYFFDHWGQGTTLIVSSAKTTAPSVYPLAPVCGDTTGSSVTLGCLVKGYFPEPVTLTWNSGSLSSGVHTFPAVLQSDLYTLSSSVTVTSSTWPSQSITCNVAHPASSTKVDKKIEPRGPTIKPCPPCKCPAPNLLGGPSVFIFPPKIKDVLMISLSPIVTCVVVDVSEDDPDVQISWFVNNVEVHTAQTQTHREDYNSTLRVVSALPIQHQDWMSGKEFKCKVNNKDLPAPIERTISKPKGSVRAPQVYVLPPPEEEMTKKQVTLTCMVTDFMPEDIYVEWTNNGKTELNYKNTEPVLDSDGSYFMYSKLRVEKKNWVERNSYSCSVVHEGLHNHHTTKSFSRTPGK
light: DVVMTQTPLSLFVDLGDPASISCRSSQSLVHTNGNTYLHWYLQKPGQSPRLLIYKVSNRFSGVPDRFSGSGSGTDFTFKISSVEAEDLGLYFCSQSRHVPLTFGAGTKLELKRADAAPTVSIFPPSSEQLTSGGASVVCFLNNFYPKDINVKWKIDGSERQNGVLNSWTDQDSKDSTYSMSSTLTLTKDEYERHNSYTCEATHKTSTSPIVKSFNRNEC
notes: Recombinant monoclonal antibody made in CHO cells from hybridoma genes; also called 14D2RMb-1抗体
